According to publication PMC10946715:

Target: Cyc15 (Streptomyces sp. NL15-2 K)
Assay: crystal structure; X-ray crystal structure of Cyc15 at 1.7 Å, molecular replacement with an AlphaFold 2.0 search model; asymmetric unit with two molecules (Chain A and Chain B)

Cyc15 (enzyme)
stoichiometry N: 2
